The source of these data is patent publication US20210063414A1, “METHODS FOR PREVENTING AND/OR TREATING BONE LOSS CONDITIONS BY MODULATING IRISIN” (Dana-Farber Cancer Institute, Inc., priority 2018, published 2021).

Holding throughout (assay): Crosslinking/co-immunoprecipitation/mass spectrometry (TMT quantitative proteomics) to identify irisin receptors
Common to all, as to type: binding

In test [1] the target is T1, MLO-Y4 cell surface proteins (Mus musculus, UniProt P39654).
T1 construct: endogenous in cells; host or cells: MLO-Y4
T1 sequence (P39654 1-663): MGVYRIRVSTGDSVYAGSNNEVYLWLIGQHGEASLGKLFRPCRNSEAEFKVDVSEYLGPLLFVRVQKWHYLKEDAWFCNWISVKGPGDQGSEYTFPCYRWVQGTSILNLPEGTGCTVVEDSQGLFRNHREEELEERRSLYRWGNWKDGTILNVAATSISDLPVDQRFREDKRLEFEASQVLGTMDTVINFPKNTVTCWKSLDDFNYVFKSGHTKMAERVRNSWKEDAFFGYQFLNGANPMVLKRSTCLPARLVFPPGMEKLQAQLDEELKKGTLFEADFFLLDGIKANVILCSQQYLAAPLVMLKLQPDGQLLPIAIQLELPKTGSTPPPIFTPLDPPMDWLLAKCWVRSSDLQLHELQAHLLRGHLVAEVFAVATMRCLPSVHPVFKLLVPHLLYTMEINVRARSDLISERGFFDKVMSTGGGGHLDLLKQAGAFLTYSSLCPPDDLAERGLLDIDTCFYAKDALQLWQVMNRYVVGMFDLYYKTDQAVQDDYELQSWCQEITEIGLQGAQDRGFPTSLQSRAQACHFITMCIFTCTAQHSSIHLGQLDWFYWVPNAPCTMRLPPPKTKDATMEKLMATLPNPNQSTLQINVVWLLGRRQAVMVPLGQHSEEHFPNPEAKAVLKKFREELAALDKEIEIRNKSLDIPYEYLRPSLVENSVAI
As to conditions: co-precipitated protein Alox15 (LOX15_MOUSE). The gist of the method:
(§1)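 Relative protein abundance came from 6-plex TMT MS3 quantitation on an Orbitrap Fusion Lumos, after in-gel trypsin digestion of Coomassie-stained SDS-PAGE lanes. Input was a Ni-NTA pulldown (250 mM imidazole elution) of lysates from murine MLO-Y4 cells. These cells were treated on ice with His-tagged irisin or adipsin (10 nM, 20 min) in serum-free medium, then crosslinked with 1.5 mM DTSSP for 30 min.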

Test [2] has as its target T2, MLO-Y4 cell surface proteins (Mus musculus, UniProt P52825).
T2 construct: endogenous in cells; host or cells: MLO-Y4
T2 sequence (P52825 26-658): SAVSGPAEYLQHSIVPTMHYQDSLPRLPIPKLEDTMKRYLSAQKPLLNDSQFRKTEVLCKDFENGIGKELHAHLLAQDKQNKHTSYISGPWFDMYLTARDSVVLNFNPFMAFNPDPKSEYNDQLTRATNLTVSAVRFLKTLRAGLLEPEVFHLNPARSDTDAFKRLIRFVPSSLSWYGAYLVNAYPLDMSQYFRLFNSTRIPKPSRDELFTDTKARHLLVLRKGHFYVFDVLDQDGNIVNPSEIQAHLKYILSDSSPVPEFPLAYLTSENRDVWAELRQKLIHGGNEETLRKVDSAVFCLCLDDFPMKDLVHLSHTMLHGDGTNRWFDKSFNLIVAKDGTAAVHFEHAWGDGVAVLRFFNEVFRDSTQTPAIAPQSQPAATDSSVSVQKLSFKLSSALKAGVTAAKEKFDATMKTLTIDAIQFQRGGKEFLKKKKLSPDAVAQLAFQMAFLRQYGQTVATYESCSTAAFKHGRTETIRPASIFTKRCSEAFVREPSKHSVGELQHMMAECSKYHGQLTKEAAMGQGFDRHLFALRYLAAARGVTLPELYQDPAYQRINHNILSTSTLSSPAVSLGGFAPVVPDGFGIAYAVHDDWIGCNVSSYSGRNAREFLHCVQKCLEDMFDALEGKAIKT
The following applies: co-precipitated protein Cpt2 (CPT2_MOUSE). The gist of the method:
as §1

In test [3] the target is T3, MLO-Y4 cell surface proteins (Mus musculus, UniProt P61161).
T3 construct: endogenous in cells; host or cells: MLO-Y4
As to conditions: co-precipitated protein Actr2 (ARP2_MOUSE). In a few lines: as §1

As for adipsin, the figures for the TMT signal-to-noise ratio in test [1], in test [2] and in test [3] were 141.336, 177.54 and 153.626, respectively.
